No end group written: not given here.

The target in assay [1] is T1, recombinant N-terminal Huntingtin fragment recHTT610 (human, UniProt P42858 1-610).
T1 construct: range 1-610; Used as extract of transiently transfected HEK293 cells, captured by anti-V5 antibody on the plate or spiked into human serum; also called recombinant HTT610; recombinant Huntingtin; not shown: two C-terminal V5 tags
As to the kind of experiment: recHTT610 capture ELISA. How it is done:
Binding of antibodies to N-terminal fragment HTT610 was determined by a standard protein capture ELISA procedure using Maxisorb™ ELISA plates (Thermo; CatNr. 439454), coated with 50 μl of a 1:5000 rabbit anti V5 mAB (Sigma, CatNr. V8137), blocking with blocking buffer (PBS, 1% BSA, 0.1% Tween 20), capturing of recombinant Huntingtin from HEK cell extracts (100 ng/μl total protein) followed by incubation with several dilutions of mouse anti HTT sera (1:100; 1:300 and 1:900) or with mAB2166 as reference (diluted 1:2000; Millipore, Cat Nr. MAB2166) for 1 hour at RT. ELISA incubations, washing and detection procedures were performed according to standard procedures.

Assay [2] deals with T2, peptide p6773 (human, not fully specified (residue 18)).
T2 peptide: LPQPPPQAQPLLPQPQPC
As to the kind of experiment: peptide ELISA.

Assay [3] has as its target T3, peptide p7564 (human, not fully specified (residue 1)).
T3 construct: also called 'cleaved' peptide
T3 peptide: CPSDSSEIVLD
As to the kind of experiment: peptide ELISA. (In general: In an ELISA, binding on a coated surface is turned into a signal by an enzyme label.)

For assay [4], the target named is T4, peptide p7562 (human, not fully specified (residue 1)).
T4 peptide: CDSSEIVLD
Nature of the assay: peptide ELISA.

The target of assay [5] is T5, peptide p7552 (human, not fully specified (residue 1)).
T5 peptide: CSSEIVLD
As to the kind of experiment: peptide ELISA.

T1 sequence (P42858 1-610): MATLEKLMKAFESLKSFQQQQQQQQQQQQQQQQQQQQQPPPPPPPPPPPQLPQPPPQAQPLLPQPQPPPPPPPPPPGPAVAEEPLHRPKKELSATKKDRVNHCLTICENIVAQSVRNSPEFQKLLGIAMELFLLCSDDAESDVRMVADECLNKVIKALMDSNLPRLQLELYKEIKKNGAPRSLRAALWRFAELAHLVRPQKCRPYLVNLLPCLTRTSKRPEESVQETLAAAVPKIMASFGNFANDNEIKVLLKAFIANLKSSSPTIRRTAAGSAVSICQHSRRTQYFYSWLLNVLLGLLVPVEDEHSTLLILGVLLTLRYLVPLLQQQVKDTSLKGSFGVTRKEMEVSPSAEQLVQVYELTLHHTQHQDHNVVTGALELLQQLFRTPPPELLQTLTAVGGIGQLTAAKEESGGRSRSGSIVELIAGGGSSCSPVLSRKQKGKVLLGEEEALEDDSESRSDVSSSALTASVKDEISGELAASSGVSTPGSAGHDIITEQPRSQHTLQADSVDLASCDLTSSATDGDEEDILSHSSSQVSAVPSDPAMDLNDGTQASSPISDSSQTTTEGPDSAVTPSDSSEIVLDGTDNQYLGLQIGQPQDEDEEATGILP

B1: monoclonal antibody PRR13 (antibody, V domains shown)
VH: EVQLQQSAPELVKPGASVKMSCKASGYSFTDFYMKWVKQSHGKGLEWIGDIDPKNGDTFYNQKFKGRATLTVDKSSSTAYMQLNSLTTEDSAVYYCATYYGYTMDYWGQGTSVTVSS
VL: QIVLTQSPAIMSASLGERVTMTCTASSSVTSSYLHWYQQKPGSSPKLWIYSTSNLASGVPARFSGSGSGTSYSLTISSMEAEDAATYYCHQYRRPPRTFGGGTKLEIKR
notes: Mouse IgG2a from hybridoma, immunogen p6773; also called mAB PRR13; PPR13
On to B1, for which the “signal to noise ratio (reHTT610-specific signal: HEK ctrl extracts)” value in assay [1] is at least 4. In assay [2], the binding result was “binds”.

B2: monoclonal antibody M1D1 (antibody, V domains shown)
VH: EVQLVESGGGLVQPKGSLKLSCAASGFTFNTYAMNWVRQAPGKGLEWVARIRSKSNNYATYYADSVKDRFTISRDDSQSMLYLQMNNLKTEDTAMYYCVRHGEYGNPWFAYWGQGTLVTVSA
VL: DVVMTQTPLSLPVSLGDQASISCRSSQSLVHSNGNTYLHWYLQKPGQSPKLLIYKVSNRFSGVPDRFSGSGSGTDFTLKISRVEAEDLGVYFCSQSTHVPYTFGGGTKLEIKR
notes: Typed as mouse IgM; hybridoma, immunogen p7564; also called mAB M1D1
For B2, the binding result in assay [3], in assay [4] and in assay [5] was “binds” in each case.
